Experimental data: patent US20260174822A1

Molecular target: GLP-1R on GeneBLAzer GLP-1R-CRE-bla CHO-K1 cells
Assay: cell-based or functional assay

Row | Substance | EC50 of GLP-1R activation (460/530 ratio, GeneBLAzer GLP-1R-CRE-bla CHO-K1 reporter cells) [µM]
1 | GLP-1-RFRS-His protein (peptide) | 0.0359
2 | GLP-1-His protein (peptide) | 0.193
